From FireProtDB (doi:10.1021/bi00485a005)

B1: Guanyl-specific ribonuclease T1, P00651 (parent)
chain: MMYSKLLTLTTLLLPTALALPSLVERACDYTCGSNCYSSSDVSTAQAAGYQLHEDGETVGSNSYPHKYNNYEGFDFSVSSPYYEWPILSSGDVYSGGSPGADRVVFNENNQLAGVITHTGASGNNFVECT

Variants of: B1
Details: Aspergillus oryzae (strain ATCC 42149 / RIB 40); pH 6.01; 25 °C; Urea; Fluorescence; MES 30 mM; NaCl 0.2 M; structure 1RN1; whole UniProt chain shown

Row | Variant | ddG of mutation (higher = less stable) | denaturant m value | denaturant midpoint (higher = more stable) | unfolding free energy
1 | MMYSKLLTLTTLLLPTALALPSLVERACDYTCGSNCYSSSDVSTAQAAGYQLHEDGETVGSNSYPHKYNNYEGFDFSVSSPYYAWPILSSGDVYSGGSPGADRVVFNENNQLAGVITHTGASGNNFVECT [E84A] | 0.64 kcal/mol | 1.34 kcal/mol/M | 5.67 M | 7.6 kcal/mol

Same assay, conditions: Aspergillus oryzae (strain ATCC 42149 / RIB 40); pH 8.01; 25 °C; Urea; Fluorescence; HEPPSO 30 mM; NaCl 0.2 mM; structure 1RN1; whole UniProt chain shown

Row | Variant | ddG of mutation (higher = less stable) | denaturant m value | denaturant midpoint (higher = more stable) | unfolding free energy
2 | MMYSKLLTLTTLLLPTALALPSLVERACDYTCGSNCYSSSDVSTAQAAGYQLHEDGETVGSNSYPHKYNNYEGFDFSVSSPYYAWPILSSGDVYSGGSPGADRVVFNENNQLAGVITHTGASGNNFVECT [E84A] | -0.71 kcal/mol | 1.36 kcal/mol/M | 4.89 M | 6.63 kcal/mol
